In patent US20100092455A1 (PIERRE FABRE MEDICAMENT, published 2010):

Legend:
[1] = target: T1, recombinant human JAM-A/Fc (R&D Systems ref. 1103-JM) (human, UniProt Q9Y624 28-238); experiment: SPR (BIAcore X), double reference, Langmuir A+B binding model, 25° C.
T1 construct: also called hJAM-A/Fc; Human JAM-1-Fc
T1 sequence: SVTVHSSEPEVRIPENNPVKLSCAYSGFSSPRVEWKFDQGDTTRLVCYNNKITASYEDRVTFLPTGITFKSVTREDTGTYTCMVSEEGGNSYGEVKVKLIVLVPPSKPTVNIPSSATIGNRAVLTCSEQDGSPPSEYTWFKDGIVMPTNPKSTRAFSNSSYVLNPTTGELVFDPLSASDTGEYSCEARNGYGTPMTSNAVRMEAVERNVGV
Method: (§1) FIG. 14 is sensorgrams obtained with a double reference, (Fc2-Fc1)6F4(Fc2-Fc1)HBS-EP. The curve is fitted using a Langmuir A+B binding model.
(§2) Murine monoclonal 6F4 antibody: 1.3 mg/ml [0351] […] Running buffer: HBS-EP (BIAcore) [0354] Binding kit: “Amine” (BIAcore) [0355] Binding buffer: Acetate pH 5.0 (BIAcore) [0356] Capturing antibody: goat IgG Fc anti-human (=GAH, goat anti-human) (Bioscience) [0357] Regeneration buffer: Glycine, HCl pH 1.5 for 30 seconds (BIAcore).

[2] = target: T2, recombinant murine JAM-A/Fc (R&D Systems ref. 1077-JM) (murine, UniProt O88792 27-238); experiment: western blot, non-reducing, revealed with 6F4; 250, 25 and 10 ng deposited
T2 construct: extracellular domain; Bought product; also called mJAM-A/Fc; Mouse JAM-1-Fc; not shown: Fc part of the bought fusion protein
T2 sequence (looked up): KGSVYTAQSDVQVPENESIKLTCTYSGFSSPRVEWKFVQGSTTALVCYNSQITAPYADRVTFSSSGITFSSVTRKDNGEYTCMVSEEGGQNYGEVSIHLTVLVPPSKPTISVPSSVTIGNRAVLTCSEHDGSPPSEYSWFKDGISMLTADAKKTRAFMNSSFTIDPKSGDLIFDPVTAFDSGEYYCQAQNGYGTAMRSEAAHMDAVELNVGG

[3] = target: T3, recombinant human JAM-B/Fc (R&D Systems ref. 1074-VJ) (human, UniProt P57087 29-236, limits assumed); experiment: as above
T3 construct: Bought product; also called hJAM-B/Fc; human form of JAM-B; not shown: Fc part of the bought fusion protein
T3 sequence (looked up): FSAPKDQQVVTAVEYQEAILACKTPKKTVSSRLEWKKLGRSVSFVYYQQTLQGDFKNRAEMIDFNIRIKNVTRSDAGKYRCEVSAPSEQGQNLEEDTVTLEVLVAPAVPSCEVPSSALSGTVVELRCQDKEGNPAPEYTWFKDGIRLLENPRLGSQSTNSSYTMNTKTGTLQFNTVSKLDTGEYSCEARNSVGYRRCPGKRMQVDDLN

[4] = target: T4, recombinant human JAM-C/Fc (R&D Systems ref. 1189-J3) (human, UniProt Q9BX67 32-241, limits assumed); experiment: as above
T4 construct: Bought product; also called hJAM-C/Fc; human form of JAM-C; not shown: Fc part of the bought fusion protein
T4 sequence (looked up): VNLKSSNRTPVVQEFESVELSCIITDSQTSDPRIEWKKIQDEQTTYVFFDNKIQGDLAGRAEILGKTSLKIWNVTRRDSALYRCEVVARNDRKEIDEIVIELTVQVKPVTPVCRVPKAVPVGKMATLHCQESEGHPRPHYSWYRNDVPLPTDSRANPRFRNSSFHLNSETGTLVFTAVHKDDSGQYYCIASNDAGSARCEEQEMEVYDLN

[5] = target: T5, natural human JAM-A protein (F11R / junctional adhesion molecule A), isoform a (human, UniProt Q9Y624 28-299); experiment: flow cytometry, labeling of MCF-7 cells with 6F4
T5 construct: Natural protein; Mass spectrometry matched it to JAM-A isoform a; also called F11 receptor; JAM-1
T5 sequence: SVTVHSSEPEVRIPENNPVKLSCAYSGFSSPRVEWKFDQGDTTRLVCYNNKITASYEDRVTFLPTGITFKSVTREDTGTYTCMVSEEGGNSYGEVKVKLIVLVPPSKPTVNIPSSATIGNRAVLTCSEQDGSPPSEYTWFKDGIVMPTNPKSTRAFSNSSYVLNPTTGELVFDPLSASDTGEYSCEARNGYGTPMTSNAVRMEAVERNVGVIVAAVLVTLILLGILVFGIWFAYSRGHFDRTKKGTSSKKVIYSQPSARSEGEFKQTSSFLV

[6] = target: T1, recombinant human JAM-A/Fc (R&D Systems …); experiment: SPR (BIAcore X), KD=kd/ka
Method: as §1, §2

B1: murine monoclonal 6F4 antibody (antibody, V domains shown)
VH: EIQLQQSGPELVKPGASVKVSCKASGYSFTDYSMYWVKQSHGKSLEWIGYIDPYNGGTRYNQKFKGKATLTVDKSSSTAFMHLNSLTSEDSAVYYCARQTDYFDYWGQGTTLTVSS
VL: DIQMTQSPSSLSASLGGKVTITCKASQDINNYIAWYQHKPGKGPRLLIHYTSTLQAGIPSRFSGSGSGRDYSFSISNLEPEDIGTYYCLQYDNLWTFGGGTKLEIKR
notes: also called 6F4 MAb; Mab 6F4; copies: 2 + 2
koff [1]: 2.5e-07 s⁻¹
kon [1]: 138000 M⁻¹ s⁻¹
binding result [2]: no binding (tested: 250 ng)
binding result [3]: no binding (tested: 250 ng)
binding result [4]: no binding (tested: 250 ng)
EC50 (read off the curve) [5]: ~0.3 µg/mL
Kd [6]: 22 pM
